The results in this text go back to US20070172423A1, “Composition and method for modulating vasculogenesis for angiogenesis” (priority 1998, published 2007).

One assay concerns hSMC. As to the kind of experiment: hSMC proliferation assay. In kind it is cell-based, human. Conditions: two days, different concentrations. Here is the method:
Cell migration assays were performed on growth arrested confluent HMVEC, BAEC or hSMC cells. Cell monolayers were wounded with a rubber policeman and washed with serum-free medium. Dishes were then incubated for 20 hours in serum-free medium containing VEGF165, PDGF-AA, (R&D Systems, Minneapolis USA) or PDGF-CC. Each assay included two dishes per condition and was repeated three times independently. Cells were photographed at 40× magnification, and migration percentage corresponding to the ratio between area of the cells and the total area of the wound (Biocom visiol@b 2000 version 4.52, San Diego). For HMVEC proliferation assay, cells were seeded in 96-well plates (5 wells per condition), and incubated with VEGF, PDGF-AA, or PDGF-CC (50 ng/ml) after serum starvation. After 7 days, viable cells were counted using the cell Titer-glo luminescent cell viability assay. For NIH-3T3 and hSMC proliferation assay, cells cultured in 96-well plates were serum-starved overnight, followed by treatment with growth factors at different concentrations. Two days later, cell numbers were counted and proliferation percentage calculated, using cells cultured in medium containing 10% serum as control. Aortic ring assay was performed as described 51. […] Aortic rings were analysed at day 9 of culturing. […]

The next assay concerns aortic rings. Put plainly: Aortic ring assay. In kind it is cell-based. The protocol: Cell migration assays were performed on growth arrested confluent HMVEC, BAEC or hSMC cells. Cell monolayers were wounded with a rubber policeman and washed with serum-free medium. Dishes were then incubated for 20 hours in serum-free medium containing VEGF165, PDGF-AA, (R&D Systems, Minneapolis USA) or PDGF-CC. Each assay included two dishes per condition and was repeated three times independently. Cells were photographed at 40× magnification, and migration percentage corresponding to the ratio between area of the cells and the total area of the wound (Biocom visiol@b 2000 version 4.52, San Diego). For HMVEC proliferation assay, cells were seeded in 96-well plates (5 wells per condition), and incubated with VEGF, PDGF-AA, or PDGF-CC (50 ng/ml) after serum starvation. After 7 days, viable cells were counted using the cell Titer-glo luminescent cell viability assay. For NIH-3T3 and hSMC proliferation assay, cells cultured in 96-well plates were serum-starved overnight, followed by treatment with growth factors at different concentrations. Two days later, cell numbers were counted and proliferation percentage calculated, using cells cultured in medium containing 10% serum as control. Aortic ring assay was performed as described 51. Briefly, one-millimeter long aortic rings were embedded in gels of rat tail interstitial collagen and cultured at 37° C., supplemented with different growth factors (50 ng/ml). Aortic rings were analysed at day 9 of culturing. Experiments included three explants per condition and were repeated at least twice. Aortic rings were photographed at 25× magnification.
Although PDGFR-α is expressed on endothelial cells (Edelberg et al., Journal of Clinical Investigation, 1998 102:837-43; Smits et al., Growth Factors, 1989 2:1-8; Bar et al., Endocrinology, 1989 124:1841-8; Beitz et al., Proc Natl Acad Sci USA, 1991 88:2021-5; Marx et al., J Clin Invest, 1994 93:131-9; Shinbrot et al., Dev. Dyn., 1994 199:169-175), little is known about the functional consequence of PDGFR-α signaling in these cells. […] We also tested the effect of PDGF-CC on cultured aortic rings, as this assay allows assessment of the outgrowth of microvessels from an intact vessel in vitro (Blacher et al., Angiogenesis, 2001 4:133-42). Results are graphically represented as the number of microvessels and the distance over which they grew out from the aortic ring. Each experiment included three explants per condition and was repeated at least twice. At day 9 after culturing, microvessels and the distance of their outgrowth were quantified and evaluated using Student's t test. In baseline conditions, only a small number of microvessels sprouted from the aortic rings—most of them over very short distances (0.25 mm from the aortic ring)—and only a small fraction (<5%) growing out over longer distances (>0.5 mm from the aortic ring, FIG. 41a). VEGF increased not only the number of sprouting microvessels (P<0.001 at all concentrations versus control), but also the distance over which they grew out (P<0.05 at all concentrations versus control; FIG. 41b,f). At 30 ng/ml, PDGF-CC increased the number of microvessels (P<0.001 versus control, FIG. 41e,g) and increased the distance of vessel outgrowth at 5 ng/ml (P<0.01 versus control, FIG. 41g). […] A similar bell-shaped dose-response relationship has been documented for other members of the VEGF/PDGF-superfamily (Jin et al., J Mol Neurosci, 2000 14:197-203). […]

In another assay the test system is PDGFR-α. Put plainly: PDGFR-α expression in gastrocnemius muscle by RNAse protection analysis. Conditions: 4.5 μg daily, day 2 after ligation, compared to vehicle. In kind it is in vivo, mouse. Here is the method: RNase protection analysis (RPA) was performed according to the manufacturer's protocol (Ambion) to investigate gene expression at mRNA level. Riboprobes were prepared using RNA polymerase (Promega) and ^32P-UTP (Amersham). Mouse β-actin cDNA (250 bp, Ambion) was used as an internal control. For Western blot assay, subconfluent cells were rinsed with cold PBS supplemented with 5 µg/ml of antiprotease cocktail, lysed in RIPA buffer and analyzed on 10% acrylamide SDS PAGE in reducing condition. […] The precipitants were analysed on SDS-PAGE, and immunoblotted using a monoclonal anti-phosphotyrosine antibody (Santa Cruz).
To further verify the angio/arteriogenic activity of PDGF-CC in vivo, the effect of PDGF-CC in an established mouse model of hind limb ischemia is investigated (Luttun et al., Nat Med, 2002 1:1). PDGFR-α expression was quantified by RNAse protection analysis in the gastrocnemius muscle, which becomes highly ischemic after ligation of the femoral artery (Deindl et al., Circ Res, 2001 89:779-86; Couffinhal et al., American Journal of Pathology, 1998 152:1667-1679). […] Revascularization of the ischemic gastrocnemius muscle, which only occurred in those regions where regenerating muscle replaced the necrotic avascular muscle, was scored after continuous delivery, by osmotic minipump, of 4.5 μg PDGF-CC per day for one week after femoral artery ligation. […]

B1: PDGF-CC: recombinant human PDGF-CC core domain homodimer, residues 230-345 of full-length PDGF-C (SEQ ID NO:40), produced in baculovirus infected insect cells (protein)
chain: GRKSRVVDLNLLTEEVRLYSCTPRNFSVSIREELKRTDTIFWPGCLLVKRCGGNCACCLHNCNECQCVPSKVTKKYHEVLQLRPKTGVRGLHKSLTDVALEHHEECDCVCRGSTGG
modifications: homodimer; PDGF-C core domain
As for B1, the “proliferation of cultured hSMC cells” value in the assay with hSMC is “stimulated”. In addition, in the assay on aortic rings (5 ng/ml, day 9, versus control), the “distance of vessel outgrowth” value was “increased”. The number of microvessels entry with aortic rings (30 ng/ml, day 9, versus control) is on record as “increased”. For the same molecule, the “concentration of maximal stimulation of perivascular fibroblast-like cells” value in the assay on aortic rings (FIG. 41 legend) lay in the range of 5 to 10 ng/mL. Besides, the “concentration of maximum effect on microvessel sprouting” value in the assay with aortic rings (bell-shaped dose-response, less potent at 50 ng/ml) was found to be 30 ng/mL. The “number and emigration of perivascular fibroblast-like cells” value in the assay with aortic rings (day 9, versus control) was “significantly increased”. Also, the “PDGFR-α expression in gastrocnemius muscle” value in the assay with PDGFR-α is on record as “almost completely restored”.
